Holding throughout (experiment): purified protein
Format in all cases: biochemical, Dictyoglomus thermophilum
Conditions in all cases: 25 mM Tris-HCl pH 8, 0.05% Triton X-100, 75°C (standard reaction), substrate 0.1 to 1 mM

Substrate in data set [1]: CC(=O)Oc1ccc([N+](=O)[O-])cc1
Substrate in data set [2]: CCCC(=O)Oc1ccc([N+](=O)[O-])cc1
Substrate in data set [3]: CCCCCCCC(=O)Oc1ccc([N+](=O)[O-])cc1
Substrate in data set [4]: CCCCCCCCCC(=O)Oc1ccc([N+](=O)[O-])cc1
Substrate in data set [5]: CCCCCCCCCCCC(=O)Oc1ccc([N+](=O)[O-])cc1

The text below walks through data of PMC5110521, “EstDZ3: A New Esterolytic Enzyme Exhibiting Remarkable Thermostability” (Frontiers in Microbiology, 2016).

B1: EstDZ3 (Dictyoglomus thermophilum) (protein)
chain: MTENREPVVLKNQGQKIFGVIHIPEKTPAPFVLFCHGFTGTKIEPHRIFVKTAEALAKEGIGALRIDFRGSGDSEGSFKDMTVEGEVSDAMVAIEYLSQNNLVDKEKIGILGLSMGGAVASITSGRNPLIKSCVLWSAVCHFDIFFNRSPEEVSRIKDYGDFIDLGGNPVGKKFLSEIVNIKPLEEIKKRSIPVLIIHGSGDMVVPIQHAYDYFNGLKDTHKVKLEIIEGADHTFNSIEWEEKVIEKTVNWFKETL
notes: full-length ORF, 256 residues (modelled 1 to 256), no signal peptide; pLATE52 poly-histidine tag kept; E. coli BL21(DE3); heat treatment and Ni-NTA; forward primer encodes MTENREP
Consider B1, for which the Km stood at 300 ± 70 µM in the data set “purified protein [1]”; 150 ± 20 µM in “purified protein [2]”; 190 ± 10 µM in “purified protein [3]”; 170 ± 10 µM in the data set “purified protein [4]”; 610 ± 140 µM in the data set “purified protein [5]”. Moreover, the Vmax in “purified protein [1]” was 355 µmol/min/mg; in “purified protein [2]”, 906 µmol/min/mg; in “purified protein [3]” it was 501 µmol/min/mg; in “purified protein [4]”, 387 µmol/min/mg; in the data set “purified protein [5]”, 357 µmol/min/mg. The turnover number (kcat) was determined as 740 s⁻¹ in the data set “purified protein [1]”; 1890 s⁻¹ in “purified protein [2]”; 104 s⁻¹ in “purified protein [3]”; 80 s⁻¹ in “purified protein [4]”; 743 s⁻¹ in “purified protein [5]”. The kcat/Km in “purified protein [1]” came out at 2.43e+06 M⁻¹ s⁻¹; in the data set “purified protein [2]” it was 1.25e+07 M⁻¹ s⁻¹; in “purified protein [3]” it was 557000 M⁻¹ s⁻¹; in the data set “purified protein [4]” it was 471000 M⁻¹ s⁻¹; in the data set “purified protein [5]” it was 1.27e+06 M⁻¹ s⁻¹.

Broadly, the Km is the substrate concentration at which the rate is half of its maximum. In general, Vmax refers to the rate approached at saturating substrate. One may read the kcat as the maximal rate divided by the concentration of active sites. One may read the kcat/Km as the second-order rate constant that governs catalysis at low substrate concentration.
